Results on 125 sequences are retold here after the supplement of paper PMC9112550, “Optimization of the antimicrobial peptide Bac7 by deep mutational scanning” (BMC Biology, 2022).
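Also: peptides expressed intracellularly from a pBAD plasmid library in pooled LB shake-flask culture, induced with 0.3% L-arabinose, DNA abundance read by NGS, three biological replicates, DESeq2 with apeglm shrinkage.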

In the series the test system is Escherichia coli TOP10. Description: shrunken log2 fold change of peptide-encoding DNA abundance (4.5 h post-induction vs induction); higher = less antimicrobial activity (less host growth inhibition). The settings on record: time post-induction: 4.5 h; library: site-saturation at positions 5, 18, 19, 20.
For RRIRLRPPRLPRPRPRPCILPRP, the “shrunken log2 fold change” value is -0.411.
With RRIRIRPPRLPRPRPRPEWEPRP the figure was 0.068.
For RRIRIRPPRLPRPRPRPKIRPRP, the “shrunken log2 fold change” value is -0.0911.
As for RRIRWRPPRLPRPRPRPIVAPRP, the “shrunken log2 fold change” value worked out at 0.541.
The value for RRIRFRPPRLPRPRPRPIKYPRP was -0.335; that for RRIRNRPPRLPRPRPRPQLYPRP was -0.206; that for RRIRHRPPRLPRPRPRPQSVPRP was -0.267.
For RRIRMRPPRLPRPRPRPTKHPRP, the “shrunken log2 fold change” value was determined as 0.17.
The value for RRIRLRPPRLPRPRPRPTDVPRP was -0.524.
Consider RRIRARPPRLPRPRPRPLWVPRP, for which the “shrunken log2 fold change” value was 0.959.
With RRIRMRPPRLPRPRPRPYWIPRP the figure was -0.157; with RRIRERPPRLPRPRPRPTFQPRP, -0.103; with RRIRCRPPRLPRPRPRPRIRPRP, 0.0722.
With RRIRERPPRLPRPRPRPCEDPRP, the “shrunken log2 fold change” value is 0.0101.
RRIRIRPPRLPRPRPRPCNNPRP: the “shrunken log2 fold change” value was -0.457.
For RRIRIRPPRLPRPRPRPSDDPRP, the “shrunken log2 fold change” value was -0.191.
The value for RRIRSRPPRLPRPRPRPIFGPRP was 0.0746; that for RRIRNRPPRLPRPRPRPLQAPRP was -0.0119; that for RRIRSRPPRLPRPRPRPPYWPRP was 0.3.
With RRIRGRPPRLPRPRPRPVQTPRP the figure was 0.626; with RRIRSRPPRLPRPRPRPSFDPRP, -0.264; with RRIRLRPPRLPRPRPRPQRNPRP, -0.789.
For RRIRARPPRLPRPRPRPLQRPRP, the “shrunken log2 fold change” value amounted to 0.58.
Consider RRIRKRPPRLPRPRPRPFSMPRP, for which the “shrunken log2 fold change” value was -0.489.
With RRIRPRPPRLPRPRPRPALLPRP the figure was 0.0603.
The value for RRIRTRPPRLPRPRPRPSDPPRP was -0.429; that for RRIRDRPPRLPRPRPRPYFWPRP was -0.0487.
The value for RRIRSRPPRLPRPRPRPTCQPRP was 0.0682; that for RRIRQRPPRLPRPRPRPTEGPRP was -0.0332.
With RRIRWRPPRLPRPRPRPILIPRP, the “shrunken log2 fold change” value was -0.037.
Regarding RRIRGRPPRLPRPRPRPIYYPRP, the “shrunken log2 fold change” value is -0.197.
On to RRIRDRPPRLPRPRPRPWCCPRP, for which the “shrunken log2 fold change” value was 0.0175.
The value for RRIRPRPPRLPRPRPRPARRPRP was 0.374.
The value for RRIRCRPPRLPRPRPRPNCVPRP was -0.00701.
The value for RRIRTRPPRLPRPRPRPMWKPRP was 0.00922; that for RRIRTRPPRLPRPRPRPDSYPRP was -0.0896; that for RRIRMRPPRLPRPRPRPNNFPRP was -0.169.
As to RRIRYRPPRLPRPRPRPQFIPRP, the “shrunken log2 fold change” value is -1.19.
As for RRIRMRPPRLPRPRPRPMIMPRP, the “shrunken log2 fold change” value was 0.421.
With RRIRLRPPRLPRPRPRPCTRPRP the figure was -0.0398.
The value for RRIRPRPPRLPRPRPRPCMMPRP was -0.467.
Take RRIRFRPPRLPRPRPRPHLEPRP: the “shrunken log2 fold change” value was -0.425.
With RRIRSRPPRLPRPRPRPMINPRP, the “shrunken log2 fold change” value is -0.23.
With RRIRGRPPRLPRPRPRPVGAPRP the figure was 1.13; with RRIRMRPPRLPRPRPRPTMVPRP, 0.263; with RRIRDRPPRLPRPRPRPLFRPRP, -0.168.
RRIRIRPPRLPRPRPRPCVIPRP: the “shrunken log2 fold change” value is -0.0683.
The value for RRIRMRPPRLPRPRPRPPGHPRP was 1.03; that for RRIRMRPPRLPRPRPRPRKDPRP was 0.61.
In the case of RRIRARPPRLPRPRPRPMVFPRP, the “shrunken log2 fold change” value is 0.508.
The value for RRIRERPPRLPRPRPRPMIQPRP was -0.176.
As to RRIRCRPPRLPRPRPRPQAQPRP, the “shrunken log2 fold change” value turned out to be 0.315.
As for RRIRKRPPRLPRPRPRPQGIPRP, the “shrunken log2 fold change” value was 0.114.
With RRIRARPPRLPRPRPRPFWFPRP the figure was 0.0903; with RRIRHRPPRLPRPRPRPYHRPRP, -0.00968.
In the case of RRIRARPPRLPRPRPRPCHGPRP, the “shrunken log2 fold change” value is -0.214.
The value for RRIRRRPPRLPRPRPRPAASPRP was 0.38; that for RRIRKRPPRLPRPRPRPNIGPRP was -0.05; that for RRIRRRPPRLPRPRPRPIVRPRP was 0.117.
Turning to RRIRTRPPRLPRPRPRPNTKPRP, the “shrunken log2 fold change” value was -0.337.
The value for RRIRKRPPRLPRPRPRPWSQPRP was -0.0225; that for RRIRFRPPRLPRPRPRPEVCPRP was 0.00109.
For the sequence RRIRVRPPRLPRPRPRPDAQPRP, the “shrunken log2 fold change” value was -0.136.
The value for RRIRFRPPRLPRPRPRPQVTPRP was -0.367; that for RRIRMRPPRLPRPRPRPAFTPRP was 0.251.
With RRIRSRPPRLPRPRPRPHEKPRP the figure was 0.0101; with RRIRGRPPRLPRPRPRPGQGPRP, 0.0965.
With RRIRARPPRLPRPRPRPNTCPRP the figure was 0.136; with RRIRTRPPRLPRPRPRPEKFPRP, -0.376; with RRIRKRPPRLPRPRPRPMTIPRP, -0.191.
Take RRIRHRPPRLPRPRPRPYNVPRP: the “shrunken log2 fold change” value was -0.0512.
With RRIRSRPPRLPRPRPRPSKCPRP the figure was -0.0382; with RRIRDRPPRLPRPRPRPMHAPRP, 0.121; with RRIRTRPPRLPRPRPRPCEHPRP, 0.00673.
Take RRIRVRPPRLPRPRPRPLDCPRP: the “shrunken log2 fold change” value is -0.0035.
Take RRIRLRPPRLPRPRPRPQLPPRP: the “shrunken log2 fold change” value is 0.178.
RRIRYRPPRLPRPRPRPKDQPRP: the “shrunken log2 fold change” value is -0.48.
Regarding RRIRWRPPRLPRPRPRPWWLPRP, the “shrunken log2 fold change” value was found to be 0.162.
On to RRIRLRPPRLPRPRPRPHMVPRP, for which the “shrunken log2 fold change” value is -0.336.
With RRIRPRPPRLPRPRPRPKECPRP the figure was 0.241; with RRIRLRPPRLPRPRPRPKGCPRP, -0.0474; with RRIRVRPPRLPRPRPRPHVQPRP, -0.0929.
Consider RRIRIRPPRLPRPRPRPVEAPRP, for which the “shrunken log2 fold change” value is -0.205.
Regarding RRIRDRPPRLPRPRPRPNAMPRP, the “shrunken log2 fold change” value was -0.0158.
Take RRIRLRPPRLPRPRPRPQIFPRP: the “shrunken log2 fold change” value is -0.165.
As for RRIRYRPPRLPRPRPRPYCVPRP, the “shrunken log2 fold change” value was -1.71.
The value for RRIRGRPPRLPRPRPRPGVCPRP was 0.892; that for RRIRERPPRLPRPRPRPWTSPRP was -0.028.
For the sequence RRIRQRPPRLPRPRPRPMNQPRP, the “shrunken log2 fold change” value was -0.437.
With RRIRRRPPRLPRPRPRPIPMPRP the figure was 0.287.
For the sequence RRIRKRPPRLPRPRPRPEYTPRP, the “shrunken log2 fold change” value was found to be 0.0243.
Turning to RRIRRRPPRLPRPRPRPQPDPRP, the “shrunken log2 fold change” value stood at 0.317.
With RRIRDRPPRLPRPRPRPRGKPRP the figure was -0.0455.
Take RRIRGRPPRLPRPRPRPRLLPRP: the “shrunken log2 fold change” value amounted to 0.908.
For RRIRGRPPRLPRPRPRPNMHPRP, the “shrunken log2 fold change” value stood at 0.563.
On to RRIRLRPPRLPRPRPRPGMCPRP, for which the “shrunken log2 fold change” value is -0.0891.
With RRIRERPPRLPRPRPRPQYTPRP the figure was -1.16; with RRIRARPPRLPRPRPRPTPNPRP, 0.602.
The value for RRIRPRPPRLPRPRPRPARVPRP was 0.295; that for RRIRWRPPRLPRPRPRPGAVPRP was 0.745.
For RRIRMRPPRLPRPRPRPWIYPRP, the “shrunken log2 fold change” value was -0.169.
Consider RRIRHRPPRLPRPRPRPPAWPRP, for which the “shrunken log2 fold change” value stood at 0.0414.
The value for RRIRHRPPRLPRPRPRPCDSPRP was -0.00145; that for RRIRGRPPRLPRPRPRPDCTPRP was 0.615; that for RRIRFRPPRLPRPRPRPNYSPRP was -0.8.
The value for RRIRDRPPRLPRPRPRPWALPRP was -0.000578; that for RRIRCRPPRLPRPRPRPIRFPRP was -0.27; that for RRIRQRPPRLPRPRPRPFHLPRP was -0.0558.
Consider RRIRERPPRLPRPRPRPMEDPRP, for which the “shrunken log2 fold change” value is -0.0739.
For RRIRFRPPRLPRPRPRPDRMPRP, the “shrunken log2 fold change” value was -0.00758.
The value for RRIRSRPPRLPRPRPRPVEKPRP was -0.0804.
With RRIRSRPPRLPRPRPRPQAHPRP the figure was -0.0418; with RRIRDRPPRLPRPRPRPPLHPRP, 0.177.
As to RRIRRRPPRLPRPRPRPPTYPRP, the “shrunken log2 fold change” value came to 0.0139.
Consider RRIRQRPPRLPRPRPRPSGTPRP, for which the “shrunken log2 fold change” value was 0.0732.
The value for RRIRWRPPRLPRPRPRPNRFPRP was -0.0274; that for RRIRRRPPRLPRPRPRPDRPPRP was 0.13.
With RRIRARPPRLPRPRPRPPSSPRP the figure was 0.342; with RRIRLRPPRLPRPRPRPHKEPRP, 0.0165; with RRIRERPPRLPRPRPRPLWTPRP, 0.0667.
Consider RRIRKRPPRLPRPRPRPAKCPRP, for which the “shrunken log2 fold change” value is 0.174.
Regarding RRIRSRPPRLPRPRPRPYRKPRP, the “shrunken log2 fold change” value was -0.901.
With RRIRARPPRLPRPRPRPLDGPRP the figure was 0.425; with RRIRPRPPRLPRPRPRPECVPRP, 0.541; with RRIRNRPPRLPRPRPRPKVPPRP, -0.129.
